Tests used:
[1] = target: T1, ASIC1 (recombinant: in vitro translated in proteoliposomes, expressed in Xenopus oocytes, reconstituted in planar lipid bilayers) (UniProt P78348)
T1 sequence: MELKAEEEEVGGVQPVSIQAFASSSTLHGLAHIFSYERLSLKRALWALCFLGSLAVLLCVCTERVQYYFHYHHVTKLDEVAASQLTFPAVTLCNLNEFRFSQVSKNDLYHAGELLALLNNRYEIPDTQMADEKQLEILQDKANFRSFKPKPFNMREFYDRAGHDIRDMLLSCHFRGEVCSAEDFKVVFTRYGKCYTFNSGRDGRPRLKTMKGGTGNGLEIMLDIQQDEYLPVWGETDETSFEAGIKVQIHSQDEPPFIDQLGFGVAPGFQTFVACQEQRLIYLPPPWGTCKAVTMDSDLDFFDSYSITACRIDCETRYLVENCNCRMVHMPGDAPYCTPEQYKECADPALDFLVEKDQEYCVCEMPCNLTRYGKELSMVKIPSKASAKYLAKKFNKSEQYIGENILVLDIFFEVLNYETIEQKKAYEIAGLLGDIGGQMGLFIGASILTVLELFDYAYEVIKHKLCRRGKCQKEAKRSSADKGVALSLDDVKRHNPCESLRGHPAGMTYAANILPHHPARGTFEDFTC

[2] = target: ASIC1+ASIC2+γ-hENaC heteromeric channel (co-expressed in Xenopus oocytes; oocyte membrane vesicles in planar lipid bilayers) (human) (UniProt P78348); assay: cell-based or functional assay
D54-MG glioma cells = assay: Transwell Migration Assay, D54-MG cells; format: cell-based, human; settings: 3 h, vitronectin
Procedure: 5-8 μm polycarbonate Transwell filters were coated on the lower surface with or vitronectin ([…] in PBS). […] of D54MG cells (400,000 cells/ml were added to the upper chamber), in the presence or absence of benzamil, and migration was allowed to proceed for 3 hours. Migration was determined according to standard procedures (120). N-amidino-3,5-diamino-pyrazinecarboxamide was used as a control.
To begin to investigate the role of the inward Na^+ conductance in the invasive behavior of tumor cells, a Transwell Migration Assay was used to assess cell chemotaxis and invasiveness (FIG. 17). D54-MG cells were plated on the upper side of a filter insert perforated with 5-8 μm holes, and induced to migrate through these pores toward the extracellular matrix protein vitronectin (coated on the underside of the filter). Benzamil, at 10, 20, 50, or 100 μM, was added to both chambers at time 0. After a 3 h migration time, cells were fixed, stained with crystal violet, and counted. BSA-coated filter inserts were used as negative controls. […]
Approximately 10,000 cells were added to the upper side of a filter insert perforated with 5-8 μm holes, and induced to migrate through these pores toward the extracellular matrix protein vitronectin (coated on the underside of the filter). […] Cells were counted on an inverted microscope, averaging five fields per Transwell chamber. […]

U87-MG cells = assay: Transwell Migration Assay, U87-MG cells; format: cell-based, human; settings: 3 h, vitronectin
primary GBM cultures = assay: Transwell Migration Assay, primary GBM cultures; format: cell-based, human; settings: 3 h, vitronectin
Procedure: Approximately 10,000 cells were added to the upper side of a filter insert perforated with 5-8 μm holes, and induced to migrate through these pores toward the extracellular matrix protein vitronectin (coated on the underside of the filter). PcTX1 or control scrambled PcTX1 peptide was added to each compartment at the same time as the cells. BSA-coated filter inserts were used as negative controls. After 3 h, cells were fixed with 4% paraformaldehyde, and subsequently stained with crystal violet. Cells were counted on an inverted microscope, averaging five fields per Transwell chamber. Four-to-ten chambers were used under each condition.

[3] = test system: constitutive amiloride-sensitive inward Na^+ current in high-grade glioma (GBM) cells; assay: Whole-cell patch clamp, freshly resected and primary cultured high-grade glioma (Grade III/IV, GBM) cells; format: cell-based, human; settings: 10 nM peptide; freshly resected GBM
Source text: FIGS. 2A-C show representative whole-cell patch clamp recordings.
FIGS. 4A and B show summary I-V curves of freshly resected normal astrocytes (FIG. 4A) and GBM cells (FIG. 4B). Inward currents (−60 mV) were −7.5±1.2 pA (normal) and −43.8±14.5 pA (GBM). Outward currents (+40 mV) averaged 42.2±2.4 pA and 47.2±12.5 pA for normal and GBMs, respectively. FIGS. 4C and D show summary amiloride-sensitive (difference) currents of freshly resected normal astrocytes (FIG. 4C) and GBM cells (FIG. 4D).
A constitutive amiloride-sensitive inward Na^+ conductance has been reported in human high-grade glioma cells. […] These inward Na^+ currents were not present in normal astrocytes or in low-grade astrocytomas (e.g., pilocytic astrocytomas). However, the composition of the channels responsible for the inward Na^+ conductance has not been reported. FIGS. 2A-C show representative whole cell patch-clamp measurements on tissue derived from a freshly resected human glioblastoma multiforme (GBM; WHO grade IV), normal astrocytes obtained from patients undergoing surgery for intractable epilepsy, and primary cultures of different grade glial tumors. […] However, there was no significant inward Na^+ current in normal astrocytes and Grades I and II astrocytoma cells (FIG. 2C).
Summary current-voltage (I-V) curves are presented for normal astrocytes and GBM cells in FIG. 4A and FIG. 4B, respectively, while difference I-V curves for normal astrocytes and GBM cells are presented in FIG. 4C and FIG. 4D, respectively. The GBM cells are depolarized by an average of 31 mV compared to the normal astrocytes under these recording conditions. The depolarized zero current membrane potential is due to the presence of an enhanced Na^+ conductance as is shown in the difference I-V curves.
(§1) FIG. 19A show representative whole-cell patch clamp recordings of ZR-75-1 and SKMEL-2 cells in the basal state.

ASIC1 = target: T2, ASIC1 (Homo sapiens, UniProt P78348); assay: Acid-activated currents in voltage-clamped Xenopus oocytes expressing ASIC1; format: cell-based; settings: 1 nM peptide (FIG. 20); pHo 4.0; −60 mV
T2 sequence (P78348 1-528): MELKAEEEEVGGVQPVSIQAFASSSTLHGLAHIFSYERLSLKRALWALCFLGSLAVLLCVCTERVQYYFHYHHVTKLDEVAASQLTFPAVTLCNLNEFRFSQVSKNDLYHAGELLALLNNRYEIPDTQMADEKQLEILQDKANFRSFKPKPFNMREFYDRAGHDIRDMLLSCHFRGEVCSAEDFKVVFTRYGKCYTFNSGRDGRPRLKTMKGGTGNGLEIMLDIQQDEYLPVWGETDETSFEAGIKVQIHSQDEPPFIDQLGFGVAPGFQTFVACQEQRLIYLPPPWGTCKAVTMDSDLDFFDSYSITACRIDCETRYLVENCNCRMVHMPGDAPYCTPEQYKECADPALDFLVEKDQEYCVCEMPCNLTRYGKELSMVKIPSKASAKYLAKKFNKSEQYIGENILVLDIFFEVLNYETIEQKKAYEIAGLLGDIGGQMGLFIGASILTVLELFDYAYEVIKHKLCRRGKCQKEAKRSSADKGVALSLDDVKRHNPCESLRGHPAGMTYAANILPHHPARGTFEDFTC
Source text: FIGS. 8A-C show acid-activated ASIC currents in Xenopus oocytes. ASIC 2 (FIG. 8A), ASIC1 (FIG. 8B) and the combination of ASIC2 and ASIC1 (FIG. 8C) were examined. […] Each oocyte served as its own control.
(§2) Membrane potential was held at −60 mV, and the pHo was step decreased to 4.0 for 10 s, and then returned to 7.4 for 30 s before repeating the sequence.
Xenopus oocytes were used to express ASIC1 and ASIC2 mRNA individually and in combination. Oocyte preparation, cRNA injection, and two-electrode voltage clamp recordings were performed as described (33,67-69).
as §2

[4] = test system: inward Na^+ currents in SK-MG cells; assay: Whole-cell patch clamp, SK-MG glioma cells; format: cell-based, human; settings: 10 nM peptide
Procedure: FIGS. 7A-7C show representative whole-cell patch clamp recordings.
The amiloride-sensitive inward Na^+ currents are measured regardless of whether ASIC2 is absent or present (FIGS. 7A-D). Whole-cell patch clamp recordings were obtained from U87-MG, SK-MG, and D54-MG glioma cells in the basal state. […] This inhibition of the inward current occurred regardless of the absence or presence of ASIC2 mRNA (FIG. 7D) (as detected by RT-PCR as described above).
as §1

## PKC holoenzyme
[1]
  ASIC1 activity in planar lipid bilayers: PKC holoenzyme or the combination of PKCβI and PKCβII isoforms inhibited ASIC1.
  in vitro phosphorylation of ASIC1: PKC holoenzyme, PKCβI, PKCβII, PKCδ, PKCε, and PKCζ phosphorylated ASIC1 in vitro.

## Syntaxin 1A GST fusion protein
[2]
  decrease in channel open probability (Po) in planar lipid bilayers, 25 µM syntaxin 1A in the cis chamber: 40%

## scrambled PcTX1 control peptide: 40mer scrambled control peptide having the same amino acid content as PcTX1; SEQ ID NO: 3 (VLEPCKWGFRTCKGEDINCPKVWTRERSKCDCEVKRCHGP; control peptide)
D54-MG glioma cells
  diminished ability to migrate through the filter: without effect
U87-MG cells
  diminished ability to migrate through the filter: without effect
Primary GBM cultures
  diminished ability to migrate through the filter: without effect
[3]
  block of constitutive inward Na^+ current: unaffected
ASIC1
  block of acid-induced inward currents: without effect
[4]
  block of constitutive inward Na^+ current: unaffected

## PKCε
[1]
  ASIC1 activity in planar lipid bilayers: Neither PKCε, PKCζ, nor their combination had any effect on ASIC1 activity in bilayers.
  in vitro phosphorylation of ASIC1: PKC holoenzyme, PKCβI, PKCβII, PKCδ, PKCε, and PKCζ phosphorylated ASIC1 in vitro.

## PKCβII
[1]
  ASIC1 activity in planar lipid bilayers (PKCβI and PKCβII added in combination): PKC holoenzyme or the combination of PKCβI and PKCβII isoforms inhibited ASIC1.
  in vitro phosphorylation of ASIC1: PKC holoenzyme, PKCβI, PKCβII, PKCδ, PKCε, and PKCζ phosphorylated ASIC1 in vitro.
